We go through 134 substances from the supplement of paper PMC12042874.

A short description of the data set: amyloid nucleation score (Sup35N fusion, yeast selection) (log enrichment); library NNK3; higher = more nucleation; inactive = no reads after selection. In short, it runs like this:
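The nucleation score equals the log enrichment of output over input reads from DiMSum, centred on the mode score of non-aggregating sequences. It was computed only for sequences with 100 or more input reads. The reads came from Illumina sequencing of plasmid inserts from psi-negative yeast expressing Sup35N fused to peptides of 20 random codons, induced with 100 μM copper sulfate for 24 hours and grown 7 days at 30°C without adenine and uracil.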

± gives the uncertainty stated by the source.

YSCLRLYATNHVTLWICELK: the amyloid nucleation score result was “inactive”.

For SIGNAIS, the amyloid nucleation score result was “inactive”.

EHPLMSSSVSSTNMFNYAQI: the amyloid nucleation score entry is “inactive”.

On to FECRQ, for which the amyloid nucleation score result was “inactive”.

Turning to KFSTTFVTCSIVLVRILLDL, the amyloid nucleation score entry is “inactive”.

FCLFLSCGDKSILGA: the amyloid nucleation score result was “inactive”.

For QLHNYARMKAQLLAVQV, the amyloid nucleation score entry was “inactive”.

Consider VSTRFFSACTLHFQSSMPYC, for which the amyloid nucleation score entry was “inactive”.

For the substance SSYLLRLLIFTSSIRRMFGS, the amyloid nucleation score entry is “inactive”.

On to GVLCMFGSTWRMFMEVGLHV, for which the amyloid nucleation score result was “inactive”.

For MLDRCD, the amyloid nucleation score result is “inactive”.

On to HTGHHWNRLHETQNSRL, for which the amyloid nucleation score entry is “inactive”.

As for SCALDLIDLQKGVTSHKEFI, the amyloid nucleation score result is “inactive”.

Take IIRAFDTYVCCKFGNCSVHM: the amyloid nucleation score was determined as 2.59 ± 0.052.

In the case of EMSFY, the amyloid nucleation score result is “inactive”.

Turning to RGKFHRVA, the amyloid nucleation score result was “inactive”.

Consider ILVCESV, for which the amyloid nucleation score result was “inactive”.

Turning to SFWCRVSHLSRDTFMDVRFM, the amyloid nucleation score result is “inactive”.

Regarding ILNTVIGSQLDELPVAAFSS, the amyloid nucleation score result was “inactive”.

As to YYFRPVSPRDLSQVDCRTDL, the amyloid nucleation score result is “inactive”.

TIVFCIVLGWLEFHRHFVSD: the amyloid nucleation score entry was “inactive”.

Consider FYKRLSMSMIWFLLYLCTDM, for which the amyloid nucleation score result was “inactive”.

As to WGEPIVLDLSSFFDLVDRHG, the amyloid nucleation score result was “inactive”.

In the case of LQWVRLVSRVQSTDCNLGAG, the amyloid nucleation score result was “inactive”.

In turn, IRDVG came in with an amyloid nucleation score of -0.573 ± 1.

For FPELSGDYLVIRMTVQFWSV, the amyloid nucleation score result was “inactive”.

In the case of PGRGLMRLYCYRFEIKTTEP, the amyloid nucleation score came out at 0.82 ± 0.23.

On to LHHFSAIPH, for which the amyloid nucleation score entry was “inactive”.

In turn, VFLACNYFILSRNDLKWGYP showed an amyloid nucleation score of 2.56 ± 0.06.

LHVLPEQARTPRVTVPVFSP had an amyloid nucleation score of -0.339 ± 1.1.

Regarding YLGGVRSII, the amyloid nucleation score was -0.402 ± 1.9.

GYVTCDLL registered an amyloid nucleation score of 1.1 ± 0.11.

On to MTLCLLSFRGQRSMPLYLWT, for which the amyloid nucleation score result was “inactive”.

For the substance EEGCYHLLNNLGRNCSECNG, the amyloid nucleation score entry was “inactive”.

Turning to YRTIVVLSNFFNILSFSKNQ, the amyloid nucleation score is 0.718 ± 0.15.

For SMFYMRFHVQ, the amyloid nucleation score result is “inactive”.

For SIFIYDVPIVSRWRIFGKQS, the amyloid nucleation score entry was “inactive”.

As to GTGMCCLIVSLVFLPLCDIA, the amyloid nucleation score result was “inactive”.

Regarding ANYVYNQTVMCS, the amyloid nucleation score entry was “inactive”.

On to SFCMCGGLLVRSYRSFRFVR, for which the amyloid nucleation score entry was “inactive”.

Take VKNFLGY: the amyloid nucleation score entry was “inactive”.

As to HLVRCNDRSNLRESGPS, the amyloid nucleation score entry is “inactive”.

As for FNLQL, the amyloid nucleation score came to 0.325 ± 0.57.

Turning to MDMLMLMGMALLIDSNVQAK, the amyloid nucleation score result is “inactive”.

In the case of DRVSANLTFLSS, the amyloid nucleation score entry is “inactive”.

PGKKL: the amyloid nucleation score was -0.453 ± 1.4.

For the substance CEQDTCFIHISRYTTVNNTM, the amyloid nucleation score entry is “inactive”.

In the case of IFFVRSDAFKFSILSVNASL, the amyloid nucleation score is -0.37 ± 0.56.

For the substance ASPTQVNYFTLVKCMVLRTT, the amyloid nucleation score entry was “inactive”.

Regarding FGKGVCRLD, the amyloid nucleation score result is “inactive”.

SNSYYWPNLYVFSTVNMVSD came in with an amyloid nucleation score of 2 ± 0.098.

RFSFVTRFRYREQLPLVR yielded an amyloid nucleation score of 0.068 ± 0.82.

Turning to GESLQLECLYFTFIKMYVSL, the amyloid nucleation score entry was “inactive”.

Consider FYSIPMLRLVVNNVLKLTAI, for which the amyloid nucleation score entry was “inactive”.

DILEVIDIF: the amyloid nucleation score entry was “inactive”.

For SLTSWGRMMSWVPCSKELRQ, the amyloid nucleation score entry is “inactive”.

With GEDIL, the amyloid nucleation score result was “inactive”.

Regarding LQSFPYQYIITR, the amyloid nucleation score entry is “inactive”.

Substance LNLQPRVDVVLVLFRTRANK gave an amyloid nucleation score of 0.767 ± 0.25.

GFIQRKNQRGVKKCRESYYY: the amyloid nucleation score result is “inactive”.

With TDVVSSVILRYSFFGHVNEF, the amyloid nucleation score result was “inactive”.

In the case of PSCSRSVTMWKSRNLFIQLA, the amyloid nucleation score entry is “inactive”.

As for HCFTVWWEWP, the amyloid nucleation score result was “inactive”.

RLVWGCCLLDTCVVEQGSGV yielded an amyloid nucleation score of 2.78 ± 0.076.

For YTRCNISNMV, the amyloid nucleation score entry is “inactive”.

Consider LYIIKSR, for which the amyloid nucleation score was -0.51 ± 1.7.

FLWSLLYIFIVCGFCNPSRR: the amyloid nucleation score entry was “inactive”.

With SVFCMLYLFWLSFLIVLLLM, the amyloid nucleation score came to 1.59 ± 0.13.

Turning to HEMAYVVPTLVYYVYNTNSR, the amyloid nucleation score is -0.076 ± 0.66.

As for ILFTYCSYINREVLRWMQDS, the amyloid nucleation score entry is “inactive”.

As for DYDGWESCFHFS, the amyloid nucleation score result is “inactive”.

For YKRRKTVNWHQDCTAIFGGN, the amyloid nucleation score entry was “inactive”.

For SFYEEGFVSYLDIRGIVYGA, the amyloid nucleation score entry is “inactive”.

Regarding CESRP, the amyloid nucleation score entry was “inactive”.

On to DWTRFPSAFTGVQKSLVD, for which the amyloid nucleation score entry was “inactive”.

On to VDHGRD, for which the amyloid nucleation score result was “inactive”.

Take NQFMGRVV: the amyloid nucleation score entry is “inactive”.

With LKGKP, the amyloid nucleation score result was “inactive”.

Regarding PHSYA, the amyloid nucleation score entry was “inactive”.

Take CWPSVMFKISADNSGWFGVD: the amyloid nucleation score entry was “inactive”.

As for QQPTYKYDDDKNFDSYWLAN, the amyloid nucleation score result was “inactive”.

Turning to RLTYIVCSA, the amyloid nucleation score result was “inactive”.

TLFNLFRVKLIDEPNLAKWL: the amyloid nucleation score entry is “inactive”.

On to GDLVLASAGYLVFGYLL, for which the amyloid nucleation score entry is “inactive”.

In turn, IHVMSWKQSYSI returned an amyloid nucleation score of 0.949 ± 0.15.

For the substance QSLGVTRFWGLSLLLQNFLP, the amyloid nucleation score entry was “inactive”.

As for AARISRGVPWYGQEMKGRVR, the amyloid nucleation score entry was “inactive”.

Regarding WQCGNVLLSYAQYNAVLVAW, the amyloid nucleation score entry is “inactive”.

Take VGGFFTSYKNYTK: the amyloid nucleation score was determined as 0.671 ± 0.27.

Take VFECLTFF: the amyloid nucleation score is -0.872 ± 1.

Take GICWY: the amyloid nucleation score result was “inactive”.

Take LLSILTWVSIYRRCFSFTAR: the amyloid nucleation score was -0.758 ± 0.88.

TPSLAIKK: the amyloid nucleation score result was “inactive”.

In the case of LFLSDKLPTFSRLNKCMLGV, the amyloid nucleation score is -1.31 ± 1.9.

As for NYDVPSDLRWEMLWVAYCRR, the amyloid nucleation score entry was “inactive”.

Turning to TGYHGHTPFSYDQYEFHLRV, the amyloid nucleation score result was “inactive”.

Regarding GGSFREVVNRRTRVGEDP, the amyloid nucleation score result was “inactive”.

In the case of RSMIWRKCF, the amyloid nucleation score entry was “inactive”.

Substance SYQVCSKQTPHFSLSFIMFV had an amyloid nucleation score of -0.488 ± 0.96.

On to TRRGSDLPSVLAMFLSKSTR, for which the amyloid nucleation score result was “inactive”.

For the substance FHKKMCTWIDELVIAVQFRD, the amyloid nucleation score result is “inactive”.

NKSLWGC: the amyloid nucleation score result is “inactive”.

Take HNKAETTPLSHCMQSSSKLL: the amyloid nucleation score result is “inactive”.

DRCCLLHYT: the amyloid nucleation score entry is “inactive”.

For the substance YDLVSNG, the amyloid nucleation score entry is “inactive”.

Take QVILHHMADKKAFISTSSSS: the amyloid nucleation score was 1.52 ± 0.074.

Turning to SFNVDAYMNINCW, the amyloid nucleation score was 1.02 ± 0.21.

TTNSQAWPMLTAVRLVYNEG: the amyloid nucleation score entry is “inactive”.

In the case of LWSLYFDFVQGFGMYLSQSL, the amyloid nucleation score entry is “inactive”.

For LSSWFHFLSNTATRQKVWRS, the amyloid nucleation score entry is “inactive”.

Turning to AKTSYQRN, the amyloid nucleation score result was “inactive”.

As for MRPVT, the amyloid nucleation score result is “inactive”.

TVYSRHIDRGYWIADGCSRV: the amyloid nucleation score result is “inactive”.

Substance DDAKFVWYVNINYRYMDSRS had an amyloid nucleation score of 2.16 ± 0.065.

Take RPMDDKWLIGLFARNERDVP: the amyloid nucleation score entry is “inactive”.

For the substance TLLRHVNNDGGSVSLGTMLA, the amyloid nucleation score result was “inactive”.

Turning to LRFNVDAMFSTSVVRIQKCL, the amyloid nucleation score entry is “inactive”.

SIFHLTSKVYISDWFC had an amyloid nucleation score of 2 ± 0.088.

In the case of KNKPEKRR, the amyloid nucleation score entry was “inactive”.

For the substance GVIILSLTAKCQAMDSVRTL, the amyloid nucleation score was found to be 0.841 ± 0.14.

KDVPPFFSSSFNWAGLRKDK had an amyloid nucleation score of 0.436 ± 0.41.

As for GTSIYSYRYLRYFSMFNM, the amyloid nucleation score result is “inactive”.

On to TNDTLFFVTSLVADPVERIS, for which the amyloid nucleation score result was “inactive”.

Substance LKDAHQWIYLW returned an amyloid nucleation score of -0.779 ± 0.88.

With DRIDRDGRRIECQWGRGGVM, the amyloid nucleation score entry was “inactive”.

In turn, SRFKFTAESLISVTVERLFL displayed an amyloid nucleation score of 0.626 ± 0.21.

As for YWQPWVNLDSYRCGHNSQFP, the amyloid nucleation score entry is “inactive”.

With YGIAMTQTIVSCSEIESKLR, the amyloid nucleation score entry was “inactive”.

In the case of GCNEHI, the amyloid nucleation score entry was “inactive”.

With RSANLICLSPLSIIIRDKTL, the amyloid nucleation score result was “inactive”.

As to NSRNMVNGHLH, the amyloid nucleation score result is “inactive”.

As for GERVSSESGRMPLPLCCYLV, the amyloid nucleation score entry was “inactive”.

Take EVPTRLDKMNENCNREDSAP: the amyloid nucleation score entry is “inactive”.

As to TVRFEGIGSHVRHTFCALDF, the amyloid nucleation score entry is “inactive”.
